Source: CN112159469A (SHANGHAI PUBLIC HEALTH CLINICAL CT, dated 2021)

B1: 单抗4L12 (antibody, V domains shown)
VH: EVQLVESGGGLVQPGGSLRLSCAASGITVSSNYMNWVRQAPGRGLEWVSLLYSGGSTYYADSVKGRFTISRDNSKNTLYLQMNSLRAEDTAVYYCARDLITYGMDVWGQGTTVTVSS
VL: AIQLTQSPSSLSASVGDRVTITCRASQGISSYLAWYQQKPGKAPKLLIYAASTLQSGVPSRFSGSGSGTDFTLTISSLQPEDFATYYCQQLNSYPPLTFGGGTKVEIK
B2: 单抗12F5 (antibody, V domains shown)
VH: EVQLVESGGGLIQPGGSLRLSCAASGFTVSSNYMSWVRQAPGKGLEWVSVIYSGGSTFYADSVKGRFTISRDNSKNTLYLQMNSLRAEDTAVYYCARDLIDYGMDVWGQGTTVTVSS
VL: DIQLTQSPSFLSASVGDRVTITCRASQGISSYLAWYQQKPGKAPKLLIYAASTLQSGVPSRFSGSGSGTEFTLTISSLQPEDFATYYCQQLNSYPPYTFGQGTKLEIK
B3: 单抗16L9 (antibody, V domains shown)
VH: EVQLVESGGGLIQPGGSLRLSCAASGFTVSSNYMSWVRQAPGKGLEWVSVIYSGGSTYYADSVKGRFTISRDNSENTLYLQMNSLRAEDTAVYYCARGEIQPYYYYGMDVWGQGTTVTVSS
VL: QSVLTQPPSASGSPGQSVTISCTGTSSDFGGYNSVSWYQQHPGKAPKLMIYEVSKRPSGVPDRFSGSKSGNTASLTVSGLQAEDEADYYCSSYAGSNNFDVFGTGTKVTVL
B4: 单抗3D13 (antibody, V domains shown)
VH: EVQLVESGGGLIQPGGSLRLSCAASGLTVSSNYMSWVRQAPGKGLEWVSVIYSGGSAFYADSVKGRFTISRDNSKNTLYLQMNSLRAEDTAVYYCARDLSSAGGMDVWGQGTTVTVSS
VL: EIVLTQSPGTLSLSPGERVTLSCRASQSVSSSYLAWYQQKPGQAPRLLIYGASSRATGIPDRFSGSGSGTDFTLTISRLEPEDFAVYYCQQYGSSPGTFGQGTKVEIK
B5: 单抗20E21 (antibody, V domains shown)
VH: EVQLVESGGGLFQPGGSLRLSCAASGLTVSSNYMSWVRQAPGKGLECVSVIYSGGSTYYADSVKGRFTISRDNSKNTLYLQMNSLRAEDTAVYYCARDRGMLHGMDVWGQGTTVTVSS
VL: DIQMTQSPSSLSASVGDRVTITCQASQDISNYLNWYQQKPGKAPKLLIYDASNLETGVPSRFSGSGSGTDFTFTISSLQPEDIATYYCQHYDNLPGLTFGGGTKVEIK
B6: 单抗10C2 (antibody, V domains shown)
VH: EVQLVESGGGLIQPGGSLRLSCAASGLTVSSNYMNWVRQAPGKGLEWVSVIYSGGSTYYADSVKGRFTISRDNSKNTLYLQMNSLRAEDTAVYYCARLLVATIRDFDYWGQGTLVTVSS
VL: not shown
B7: 单抗22H22 (antibody, V domains shown)
VH: EVQLVESGGALIQPGGSLRLSCAASGLTVSSNYMTWVRQAPGKGLEWVSVIYSGGSTYYADSVKGRFTISRDNSKNTLYLQMNSLRAEDTAVYYCARGYGDYENYFDYWGQGTLVTVSS
VL: AIQLTQSPSSLSASVGDRVTITCRASQGISSYLAWYQQKPGKAPKLLIYAASTLQGGVPSRFSGSGSGTDFTLTISSLQPEDFATYYCQHLWTFGQGTKVEIK

What follows are binders tested against SARS-CoV-2病毒的S1蛋白的RBD (SARS-CoV-2, UniProt P0DTC2 319-541) (assay: BLI (OctetRED96), antibody captured on AHC probe, RBD in solution from 100 nM in 3-fold dilutions, 1:1 global fit).
Work on B1 yielded a Kd of 1.49 nM.
In the case of B2, the Kd is reported as 2.22 nM.
B3 gave a Kd of 1.21 nM.
B4 gave a Kd of 4.17 nM.
B5 was tested, and the Kd was 2.3 nM.
With B6 the Kd was 3.36 nM.
B7 gave a Kd of 5.07 nM.
